Data as given in the supplement of paper PMC9112550, “Optimization of the antimicrobial peptide Bac7 by deep mutational scanning” (BMC Biology, 2022).

system: Escherichia coli TOP10; experiment: shrunken log2 fold change of peptide-encoding DNA abundance (4.5 h post-induction vs induction); higher = less antimicrobial activity (less host growth inhibition); details: time post-induction: 4.5 h; library: site-saturation at positions 5, 18, 19, 20
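Further: peptides expressed intracellularly from a pBAD plasmid library in pooled LB shake-flask culture, induced with 0.3% L-arabinose, DNA abundance read by NGS, three biological replicates, DESeq2 with apeglm shrinkage.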

Sequence | shrunken log2 fold change
RRIRLRPPRLPRPRPRPVTIPRP | 0.0221
RRIRSRPPRLPRPRPRPPIVPRP | -0.0118
RRIRQRPPRLPRPRPRPDQNPRP | -0.377
RRIRHRPPRLPRPRPRPRILPRP | 0.091
RRIRDRPPRLPRPRPRPRVMPRP | 0.106
RRIRERPPRLPRPRPRPWTRPRP | -0.0974
RRIRMRPPRLPRPRPRPQVEPRP | -0.00107
RRIRSRPPRLPRPRPRPIYIPRP | -0.776
RRIRVRPPRLPRPRPRPRFHPRP | -0.264
RRIRMRPPRLPRPRPRPKLEPRP | 1.14
RRIRDRPPRLPRPRPRPMDNPRP | -0.0115
RRIRARPPRLPRPRPRPIFRPRP | 0.205
RRIRMRPPRLPRPRPRPCNIPRP | 0.0653
RRIRSRPPRLPRPRPRPNEEPRP | 0.0709
RRIRFRPPRLPRPRPRPCRFPRP | -0.607
RRIRNRPPRLPRPRPRPILKPRP | 0.0926
RRIRGRPPRLPRPRPRPKKQPRP | 0.0981
RRIRTRPPRLPRPRPRPDDNPRP | -0.195
RRIRWRPPRLPRPRPRPIMAPRP | 0.14
RRIRKRPPRLPRPRPRPQREPRP | 0.749
RRIRCRPPRLPRPRPRPAIPPRP | -0.246
RRIRERPPRLPRPRPRPSFQPRP | -0.0708
RRIRMRPPRLPRPRPRPYANPRP | -0.139
RRIRCRPPRLPRPRPRPEWSPRP | 0.144
RRIRDRPPRLPRPRPRPNHVPRP | -0.242

Sequence | shrunken log2 fold change
RRIRQRPPRLPRPRPRPCSTPRP | 0.0062
RRIRERPPRLPRPRPRPAEHPRP | -0.0237
RRIRKRPPRLPRPRPRPNNYPRP | -0.259
RRIRGRPPRLPRPRPRPLRRPRP | 1.54
RRIRQRPPRLPRPRPRPYSLPRP | -0.197
RRIRFRPPRLPRPRPRPKWYPRP | -0.388
RRIRARPPRLPRPRPRPCRRPRP | -0.085
RRIRHRPPRLPRPRPRPCEHPRP | -0.00546
RRIRRRPPRLPRPRPRPDRLPRP | 0.058
RRIRHRPPRLPRPRPRPWNWPRP | -0.0135
RRIRLRPPRLPRPRPRPMNAPRP | -0.446
RRIRCRPPRLPRPRPRPAPQPRP | 0.829
RRIRNRPPRLPRPRPRPRYVPRP | -0.265
RRIRTRPPRLPRPRPRPVTKPRP | 0.0906
RRIRGRPPRLPRPRPRPVFCPRP | 0.206
RRIRVRPPRLPRPRPRPRYNPRP | -0.381
RRIRFRPPRLPRPRPRPEMRPRP | 0.244
RRIRARPPRLPRPRPRPNQVPRP | -0.0439
RRIRNRPPRLPRPRPRPDRQPRP | -0.0285
RRIRTRPPRLPRPRPRPEWDPRP | 0.064
RRIRMRPPRLPRPRPRPEKYPRP | 0.746
RRIRNRPPRLPRPRPRPEWAPRP | 0.0317
RRIRHRPPRLPRPRPRPVVTPRP | -0.0256
RRIRLRPPRLPRPRPRPNHSPRP | 0.135
RRIRTRPPRLPRPRPRPTGDPRP | 0.475

Sequence | shrunken log2 fold change
RRIRWRPPRLPRPRPRPCRKPRP | -0.0352
RRIRPRPPRLPRPRPRPGHAPRP | 0.461
RRIRQRPPRLPRPRPRPGQRPRP | 0.0565
RRIRSRPPRLPRPRPRPWYGPRP | -0.933
RRIRWRPPRLPRPRPRPCRLPRP | 0.0377
RRIRQRPPRLPRPRPRPMINPRP | -0.0423
RRIRYRPPRLPRPRPRPIMHPRP | -0.483
RRIRIRPPRLPRPRPRPRYCPRP | -0.157
RRIRQRPPRLPRPRPRPEPEPRP | 0.813
RRIRWRPPRLPRPRPRPRIRPRP | 0.0716
RRIRTRPPRLPRPRPRPLQIPRP | 4.62
RRIRYRPPRLPRPRPRPGCIPRP | -0.819
RRIRHRPPRLPRPRPRPIVTPRP | -0.388
RRIRDRPPRLPRPRPRPYPIPRP | 0.0369
RRIRNRPPRLPRPRPRPGTIPRP | -0.316
RRIRNRPPRLPRPRPRPSEYPRP | -0.386
RRIRPRPPRLPRPRPRPYLAPRP | -0.528
RRIRCRPPRLPRPRPRPWFDPRP | -0.496
RRIRVRPPRLPRPRPRPPMEPRP | -0.172
RRIRWRPPRLPRPRPRPYKDPRP | -0.33
RRIRQRPPRLPRPRPRPYRWPRP | -0.0412
RRIRWRPPRLPRPRPRPAWHPRP | 0.162
RRIRVRPPRLPRPRPRPATAPRP | 0.18
RRIRWRPPRLPRPRPRPWIGPRP | 0.0176
RRIRYRPPRLPRPRPRPPLMPRP | -0.293
